This assay has as its target T1, rFN12-14 (recombinant fibronectin type III repeats 12 to 14).
T1 construct: fibronectin, type III repeats 12 to 14; Held by its His tag on Immobilizer Nickel-Chelate plates in the adherence assays; immobilised on a C1 sensor chip in SPR
The assay can be described thus: SPR; Biacore T200, C1 sensor chip; rFN12-14 immobilised (~870 RU); rF-, rFG-repeat or multiple repeats in HBS-EP injected at 40 μl/min; double referencing. As to conditions: both partners purified. Background: SPR reads the build-up and loss of mass on a sensor chip optically.

B1: r5FG-repeats (recombinant Embp fragment, aa 6777 to 7406) (domain or fragment)
chain: ADQKLQDAKTDAKQQITNFTGLTEPQKQALENIINQQTSRANVAKQLSHAKFLNGKMEELKVAVAKASLVRQNSNYINEDVSEKEAYEQAIAKGQEIINSENNPTISSTDINRTIQEINDAEQNLHGDNKLRQAQEIAKNEIQNLDGLNSAQITKLIQDIGRTTTKPAVTQKLEEAKAINQAMQQLKQSIADKDATLNSSNYLNEDSEKKLAYDNAVSQAEQLINQLNDPTMDISNIQAITQKVIQAKDSLHGANKLAQNQADSNLIINQSTNLNDKQKQALNDLINHAQTKQQVAEIIAQANKLNNEMGTLKTLVEEQSNVHQQSKYINEDPQVQNIYNDSIQKGREILNGTTDDVLNNNKIADAIQNIHLTKNDLHGDQKLQKAQQDATNELNYLTNLNNSQRQSEHDEINSAPSRTEVSNDLNHAKALNEAMRQLENEVALENSVKKLSDFINEDEAAQNEYSNALQKAKDIINGVPSSTLDKATIEDALLELQNARESLHGEQKLQEAKNQAVAEIDNLQALNPGQVLAEKTLVNQASTKPEVQEALQKAKELNEAMKALKTEINKKEQIKADSRYVNADSGLQANYNSALNYGSQIIATTQPPELNKDVINRATQTIKTAENNLN
Usually Kd stands for the equilibrium constant for the complex coming apart. For the molecule B1, the Kd turned out to be 10 µM.

For the origin of these results see PMC7587433, “A Giant Extracellular Matrix Binding Protein of Staphylococcus epidermidis Binds Surface-Immobilized Fibronectin via a Novel Mechanism” (mBio, 2020).
